Numbering of substitutions follows the chain as printed.
T1: human IL-17F homodimer (human, UniProt Q96PD4 31-163)
T1 construct: Recombinant (HEK293, ZymoGenetics); also called hIL-17F; IL-17F A2768F
T1 sequence: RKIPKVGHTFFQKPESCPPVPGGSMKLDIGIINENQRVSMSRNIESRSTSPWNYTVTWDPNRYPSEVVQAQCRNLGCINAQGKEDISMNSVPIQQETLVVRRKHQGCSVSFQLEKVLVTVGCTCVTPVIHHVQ

B1: 339-125 (antibody, human IgG1, V domains shown)
VH: QVQLVQSGAEVKKPGASVKVSCKASGYTFNEYTMHWVKQSHGQRLEWMGGINPNSGGVSYNQNFKGKATLTVDTSASTAYMELSSLRSEDTAVYYCARGGDGYYTNYFDIDYWGQGTTVTVSS
VL: DIQMTQSPSSLSASVGDRVTITCSASSSVNYMHWYQQKPGKVPKLLIYDTSKLASGVPSRFSGSGSGTDFTLTISSLQPEDVATYYCQQWNSHPLTFGQGTKLEIK
B2: 339-38 (antibody, human IgG1, V domains shown)
VH: B1 VH
VL: EIVLTQSPDFQSVTPKEKVTITCSASSSVNYMHWYQQKPDQSPKLLIKDTSKLASGVPSRFSGSGSGTDFTLTINSLEAEDAATYYCQQWNSHPLTFGQGTKLEIK
B3: human IL-23 (IL-23p19/IL-12B heterodimer) (ligand)
chain 1: RAVPGGSSPAWTQCQQLSQKLCTLAWSAHPLVGHMDLREEGDEETTNDVPHIQCGDGCDPQGLRDNSQFCLQRIHQGLIFYEKLLGSDIFTGEPSLLPDSPVGQLHASLLGLSQLLQPEGHHWETQQIPSLSPSQPWQRLLLRFKILRSLQAFVAVAARVFAHGAATLSP
chain 2: IWELKKDVYVVELDWYPDAPGEMVVLTCDTPEEDGITWTLDQSSEVLGSGKTLTIQVKEFGDAGQYTCHKGGEVLSHSLLLLHKKEDGIWSTDILKDQKEPKNKTFLRCEAKNYSGRFTCWWLTTISTDLTFSVKSSRGSSDPQGVTCGAATLSAERVRGDNKEYEYSVECQEDSACPAAEESLPIEVMVDAVHKLKYENYTSSFFIRDIIKPDPPKNLQLKPLKNSRQVEVSWEYPDTWSTPHSYFSLTFCVQVQGKSKREKKDRVFTDKTSATVICRKNASISVRAQDRYYSSSWSEWASVPCS
B4: 339-33 (antibody, human IgG1, V domains shown)
VH: B1 VH with N30T, K38R, S40A, H41P, K67R, A68V, L70I, V72R
VL: B2 VL
B5: 339-126 (antibody, human IgG1, V domains shown)
VH: B1 VH with N30T, K38R, S40A, H41P, K67R, A68V, L70I, V72R
VL: B1 VL
B6: C/DVCV1 IgG1.1 (bispecific antibody)
heavy: QIQLVQSGPELKKPGETVEISCKASGYTFTDYLIFWVKQAPGKGLNWMGWINTETVEPTYADDFKGRFAFSLETSASTAHLLINNLKKEDTSTYFCARVPHLGPYYYAMDYWGQGTSVTVSSASTKGPSVFPLAPSSKSTSGGTAALGCLVKDYFPEPVTVSWNSGALTSGVHTFPAVLQSSGLYSLSSVVTVPSSSLGTQTYICNVNHKPSNTKVDKKVEPKSCGGGGSGGGGSQVTLKESGPGILQPSQTLSLTCSFSGFSLSTSGMGVGWIRQPSGKGLEWLANIWWDDDKRYNPALKSRLTISKDTSSNQVFLKIASVDTADTATYYCARIDYDYDRGAYHVMDYWGQGTSVTVSSEPKSSDKTHTCPPCPAPEAEGAPSVFLFPPKPKDTLMISRTPEVTCVVVDVSHEDPEVKFNWYVDGVEVHNAKTKPREEQYNSTYRVVSVLTVLHQDWLNGKEYKCKVSNKALPSSIEKTISKAKGQPREPQVYTLPPSRDELTKNQVSLTCLVKGFYPSDIAVEWESNGQPENNYKTTPPVLDSDGSFFLYSKLTVDKSRWQQGNVFSCSVMHEALHNHYTQKSLSLSPGK
light: DIVLKQSPASLGVALGQRATISCRASKSVSTSDFSYMHWYQQKPGQPPELLIYLASNLESGVPARFSGSGSGTDFTLNIHPVEEEDAATYYCQHSREFPPTFGAGTKLELKRTVAAPSVFIFPPSDEQLKSGTASVVCLLNNFYPREAKVQWKVDNALQSGNSQESVTEQDSKDSTYSLSSTLTLSKADYEKHKVYACEVTHQGLSSPVTKSFNRGECGGGGSGGGGSDIQMTQSPASLSVSVGETVTITCRTSENIFSNLAWYQQKQGKSPQLLVYDATNLADGVPSRFSGSGSGTQYSLKINSLQSEDFGTYYCQHFWYTPWTFGGGTKLEIK
B7: 339-39 (antibody, human IgG1, V domains shown)
VH: B1 VH with A76S, Y94F
VL: B2 VL
B8: 339-35 (antibody, human IgG1, V domains shown)
VH: B1 VH with K67R, A68V, L70I, V72R
VL: B2 VL
B9: 339-105 (antibody, human IgG1, V domains shown)
VH: B1 VH with N30T, K38R, S40A, H41P, K67R, A68V, L70I, V72R, A76S, Y94F
VL: B1 VL
B10: 339-71 (antibody, human IgG1, V domains shown)
VH: B1 VH with N30T, K38R, S40A, H41P
VL: B2 VL
B11: 339-104 (antibody, human IgG1, V domains shown)
VH: B1 VH with A76S, Y94F
VL: B1 VL
B12: 339-127 (antibody, human IgG1, V domains shown)
VH: B1 VH with K67R, A68V, L70I, V72R
VL: B1 VL
B13: 339-37 (antibody, human IgG1, V domains shown)
VH: B1 VH with N30T, K38R, S40A, H41P, K67R, A68V, L70I, V72R, A76S, Y94F
VL: B2 VL
B14: 339-128 (antibody, human IgG1, V domains shown)
VH: B1 VH with N30T, K38R, S40A, H41P
VL: B1 VL

What follows are binders tested against T1, human IL-17F homodimer (assay: SPR Biacore T100, captured antibody, bivalent analyte model).
Description: (§1) Binding kinetics and affinity studies were performed on a BIACORE® T100 system (GE Healthcare, Piscataway, N.J.). Methods for the BIACORE® T100 were programmed using BIACORE® T100 Control Software, v 2.0. For these experiments, the humanized anti-human IL-17A/F antibodies were captured onto a CM4 sensor chip via either goat anti-human IgG Fc-gamma antibody (Jackson ImmunoResearch, West Grove, Pa.) or goat anti-mouse IgG Fc-gamma antibody (Jackson ImmunoResearch). Binding experiments with the IL-17 molecules were performed at 25° C. in a buffer of 10 mM HEPES, 150 mM NaCl, 3 mM EDTA, 0.05% Surfactant P20 (GE Healthcare), 1 mg/mL bovine serum albumin, pH 7.4.
(§2) The capture antibody, goat anti-human IgG Fc-gamma, was diluted to concentration of 20 μg/mL in 10 mM sodium acetate pH 5.0, and then covalently immobilized to all four flow cells of a CM4 sensor chip using amine coupling chemistry (EDC:NHS). […] A capture antibody density of approximately 5000 RU was obtained. The humanized anti-human IL-17A/F antibodies were captured onto flow cell 2, 3, or 4 of the CM4 chip at a density ranging from 60-150 RU. Capture of the test antibodies to the immobilized surface was performed at a flow rate of 10 μL/min. The BIACORE® instrument measures the mass of protein bound to the sensor chip surface, and thus, capture of the test antibody was verified for each cycle. […] The serial dilutions were injected over the surface and allowed to specifically bind to the test antibody captured on the sensor chip. Duplicate injections of each antigen concentration were performed with an association time of 7 minutes and dissociation time of 15 minutes. Kinetic binding studies were performed with a flow rate of 50 μL/min. In between cycles, the flow cell was washed with 20 mM hydrochloric acid to regenerate the surface. This wash step removed both the captured test antibody and any bound antigen from the immobilized antibody surface. The test antibody was subsequently captured again in the next cycle.
(§3) Data was compiled using the BIACORE® T100 Evaluation software (version 2.0).

| Kd | koff | kon | Binder |
| --- | --- | --- | --- |
| 0.1 nM | 0.0002 s⁻¹ | 2e+06 M⁻¹ s⁻¹ | B1 |
| 0.3 nM | 0.0006 s⁻¹ | 2e+06 M⁻¹ s⁻¹ | B2 |

These binders were tested against human IL-23Rα/human IL-12Rβ1 on BaF3 transfectants (human, UniProt Q5VWK5 24-629; P42701 24-662) (assay: cell-based or functional assay).
Sequence of human IL-23Rα/human IL-12Rβ1 on BaF3 transfectants (Q5VWK5 24-629, chain 1 of 2, other chains not shown): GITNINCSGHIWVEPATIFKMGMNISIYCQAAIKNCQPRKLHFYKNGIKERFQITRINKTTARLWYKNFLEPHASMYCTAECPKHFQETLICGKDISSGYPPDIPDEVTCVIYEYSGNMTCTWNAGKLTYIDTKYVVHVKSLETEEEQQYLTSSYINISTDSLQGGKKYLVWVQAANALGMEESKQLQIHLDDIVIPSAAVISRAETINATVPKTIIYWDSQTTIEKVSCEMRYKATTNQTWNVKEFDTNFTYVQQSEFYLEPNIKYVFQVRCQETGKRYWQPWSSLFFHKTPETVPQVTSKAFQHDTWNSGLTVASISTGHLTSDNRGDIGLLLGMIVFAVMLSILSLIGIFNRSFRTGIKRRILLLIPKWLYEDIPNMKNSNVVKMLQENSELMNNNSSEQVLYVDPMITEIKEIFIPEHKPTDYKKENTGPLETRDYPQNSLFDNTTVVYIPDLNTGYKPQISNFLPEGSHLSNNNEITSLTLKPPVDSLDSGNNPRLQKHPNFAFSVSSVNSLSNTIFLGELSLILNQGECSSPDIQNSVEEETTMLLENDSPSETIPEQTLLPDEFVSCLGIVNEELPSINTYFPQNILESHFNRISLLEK

| EC50, STAT3 phosphorylation in Baf3/huIL-23Ra/huIL-12Rb1 transfectants | Binder |
| --- | --- |
| 0.02 nM | B3 |

What follows are binders tested against T2, human IL-17A/F heterodimer (human, UniProt Q16552 24-155; Q96PD4 31-163) (assay: SPR Biacore T100, captured antibody, bivalent analyte model).
T2 construct: Recombinant (HEK293, ZymoGenetics)
Description: as §1, §2, §3

| Kd | koff | kon | Binder |
| --- | --- | --- | --- |
| 0.3 nM | 0.0006 s⁻¹ | 2e+06 M⁻¹ s⁻¹ | B1 |
| 0.4 nM | 0.0004 s⁻¹ | 1e+06 M⁻¹ s⁻¹ | B2 |

What follows are binders tested against T1, human IL-17F homodimer (assay: cell-based or functional assay).

| IC50, NIH/3T3/KZ170 NF-kB luciferase reporter | Binder |
| --- | --- |
| 1.7 nM | B4 |
| 1.6 nM | B5 |

What follows are binders tested against T2, human IL-17A/F heterodimer (assay: cell-based or functional assay).

| IC50, NIH/3T3/KZ170 NF-kB luciferase reporter | Binder |
| --- | --- |
| 9.7 nM | B4 |
| 24 nM | B5 |

These binders were tested against T3, human IL-17A homodimer (human, UniProt Q16552 24-155) (assay: cell-based or functional assay).

| IC50, NIH/3T3/KZ170 NF-kB luciferase reporter | Binder |
| --- | --- |
| > 600 nM | B4 |
| > 600 nM | B5 |

These binders were tested against T3, human IL-17A homodimer (assay: SPR Biacore T100, captured antibody, bivalent analyte model).
Description: as §1, §2, §3

| Kd | koff | kon | Binder |
| --- | --- | --- | --- |
| 1 nM | 0.003 s⁻¹ | 2e+06 M⁻¹ s⁻¹ | B1 |
| 1 nM | 0.005 s⁻¹ | 4e+06 M⁻¹ s⁻¹ | B2 |

The binders below were run against human PDGF-D (human, UniProt Q9GZP0 250-370, limits assumed) (assay: cell-based or functional assay).
Sequence of human PDGF-D (Q9GZP0 250-370 limits assumed): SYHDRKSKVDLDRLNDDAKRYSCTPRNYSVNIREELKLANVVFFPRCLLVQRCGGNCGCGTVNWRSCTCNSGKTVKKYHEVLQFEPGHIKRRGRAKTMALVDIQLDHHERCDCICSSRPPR

| IC50, NHLF proliferation (3H-thymidine) | Binder |
| --- | --- |
| 20 nM | B6 |

These binders were tested against human PDGF-C (human, UniProt Q9NRA1 235-345, limits assumed) (assay: cell-based or functional assay).
Sequence of human PDGF-C (Q9NRA1 235-345 limits assumed): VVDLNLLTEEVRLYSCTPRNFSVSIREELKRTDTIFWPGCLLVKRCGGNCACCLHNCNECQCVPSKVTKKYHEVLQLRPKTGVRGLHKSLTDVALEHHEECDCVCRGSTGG

| IC50, NHLF proliferation (3H-thymidine) | Binder |
| --- | --- |
| 0.09 nM | B6 |

Target: T1, human IL-17F homodimer
Experiment: cell-based or functional assay
Remark: another data set of the same source

| IC50, NIH/3T3/KZ170 NF-kB luciferase reporter | Binder |
| --- | --- |
| 0.25 nM | B7 |
| 0.64 nM | B8 |
| 2.6 nM | B9 |
| 0.2 nM | B10 |
| 0.83 nM | B1 |
| 0.83 nM | B11 |
| 0.5 nM | B12 |
| 3.5 nM | B13 |
| 0.25 nM | B14 |
| 0.27 nM | B2 |

Target: T2, human IL-17A/F heterodimer
Experiment: cell-based or functional assay
Remark: another data set of the same source

| IC50, NIH/3T3/KZ170 NF-kB luciferase reporter | Binder |
| --- | --- |
| 0.23 nM | B7 |
| 2.4 nM | B8 |
| 23 nM | B9 |
| 0.37 nM | B10 |
| 0.81 nM | B1 |
| 0.83 nM | B11 |
| 3.4 nM | B12 |
| 20 nM | B13 |
| 0.41 nM | B14 |
| 0.27 nM | B2 |

Target: T3, human IL-17A homodimer
Experiment: cell-based or functional assay
Remark: another data set of the same source

| IC50, NIH/3T3/KZ170 NF-kB luciferase reporter | Binder |
| --- | --- |
| 7.6 nM | B7 |
| > 600 nM | B8 |
| > 600 nM | B9 |
| 16 nM | B10 |
| 1.5 nM | B1 |
| 1.5 nM | B11 |
| 190 nM | B12 |
| > 600 nM | B13 |
| 5.1 nM | B14 |
| 8.2 nM | B2 |

Reference: US20170275357A1 (Bristol-Myers Squibb, published 2017)
